In patent US20250313627A1:

How the values were obtained:
[1] = molecular target: human ROR1 (Receptor Tyrosine Kinase-Like Orphan Receptor 1) on the cell surface (human) (UniProt Q01973); test: flow cytometry, B16-F10 cells expressing human ROR1 (high density)
[2] = molecular target: human ROR1 (Receptor Tyrosine Kinase-Like Orphan Receptor 1) on the cell surface (human) (UniProt Q01973); test: as above; remark: listed apart in the source
[3] = molecular target: human ROR1 (Receptor Tyrosine Kinase-Like Orphan Receptor 1) on the cell surface (human) (UniProt Q01973); test: as above; remark: listed apart in the source
[4] = molecular target: human ROR1 (Receptor Tyrosine Kinase-Like Orphan Receptor 1) on the cell surface (human) (UniProt Q01973); test: flow cytometry, LS174T cells expressing human ROR1 (low density)
[5] = molecular target: human ROR1 (Receptor Tyrosine Kinase-Like Orphan Receptor 1) on the cell surface (human) (UniProt Q01973); test: flow cytometry, B16-F10 cells expressing human ROR1 (high density); remark: listed apart in the source
[6] = molecular target: human ROR1 (Receptor Tyrosine Kinase-Like Orphan Receptor 1) on the cell surface (human) (UniProt Q01973); test: as above; remark: listed apart in the source
[7] = molecular target: human ROR1 (Receptor Tyrosine Kinase-Like Orphan Receptor 1) on the cell surface (human) (UniProt Q01973); test: as above; remark: listed apart in the source
[8] = molecular target: human ROR1 (Receptor Tyrosine Kinase-Like Orphan Receptor 1) on the cell surface (human) (UniProt Q01973); test: flow cytometry, LS174T cells expressing human ROR1 (low density); remark: listed apart in the source

human ROR1 (Receptor Tyrosine Kinase-Like Orphan Receptor 1) on the cell surface (human), sequence (Q01973 30-937): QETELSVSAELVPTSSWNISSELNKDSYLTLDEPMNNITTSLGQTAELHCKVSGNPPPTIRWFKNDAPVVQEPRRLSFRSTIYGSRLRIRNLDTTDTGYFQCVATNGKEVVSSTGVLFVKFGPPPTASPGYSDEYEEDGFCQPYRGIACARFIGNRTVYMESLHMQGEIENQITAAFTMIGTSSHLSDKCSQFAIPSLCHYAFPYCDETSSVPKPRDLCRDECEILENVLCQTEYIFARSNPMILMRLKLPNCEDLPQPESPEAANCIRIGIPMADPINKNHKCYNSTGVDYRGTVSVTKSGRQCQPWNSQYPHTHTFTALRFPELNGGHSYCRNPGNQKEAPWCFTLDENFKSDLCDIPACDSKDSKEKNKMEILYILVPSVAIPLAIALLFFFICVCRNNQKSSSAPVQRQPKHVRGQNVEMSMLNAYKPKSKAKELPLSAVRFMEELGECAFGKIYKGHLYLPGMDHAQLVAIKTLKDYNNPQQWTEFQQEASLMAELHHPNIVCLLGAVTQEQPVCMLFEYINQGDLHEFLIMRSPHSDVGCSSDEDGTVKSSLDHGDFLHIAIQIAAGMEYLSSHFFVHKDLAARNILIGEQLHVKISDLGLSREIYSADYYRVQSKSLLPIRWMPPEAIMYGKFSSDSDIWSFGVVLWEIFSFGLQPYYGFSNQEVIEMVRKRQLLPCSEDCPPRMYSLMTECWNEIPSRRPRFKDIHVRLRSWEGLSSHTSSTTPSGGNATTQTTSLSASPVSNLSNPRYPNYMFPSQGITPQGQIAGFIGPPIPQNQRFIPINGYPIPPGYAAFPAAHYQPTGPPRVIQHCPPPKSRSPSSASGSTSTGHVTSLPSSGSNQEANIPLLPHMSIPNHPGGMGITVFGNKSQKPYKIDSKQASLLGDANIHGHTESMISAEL

B1: anti-human ROR1 (clone 2A2)-PE (antibody, from another filing, V domains shown)
VH: QVQLQQSGAELVRPGASVTLSCKASGYTFSDYEMHWVIQTPVHGLEWIGAIDPETGGTAYNQKFKGKAILTADKSSSTAYMELRSLTSEDSAVYYCTGYYDYDSFTYWGQGTLVTVSA
VL: DIVMTQSQKIMSTTVGDRVSITCKASQNVDAAVAWYQQKPGQSPKLLIYSASNRYTGVPDRFTGSGSGTDFTLTISNMQSEDLADYFCQQYDIYPYTFGGGTKLEIK
An MFI [1] of 21600, an MFI [2] of 35200 and an MFI [3] of 27100 were found for B1 in this work. For the same binder, the MFI [4] was 36200, the MFI [5] was 416000 and the MFI [6] was 38700. The MFI [7] was 19900 and the MFI [8] was 7960.
